Data as given in the nanobody polyreactivity screen of Harvey et al. (2022).

Experiment: yeast display, Sf9 membrane polyspecificity reagent, FACS + sequencing; frameworks hold sequencing errors
Summary of the method: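 In a synthetic yeast display library (Saccharomyces cerevisiae BJ5465), nanobody expression was induced with galactose for 36–48 hours. FACS gates were set low and high (top ~1%) using anti-HA fluorescence for expression and streptavidin fluorescence for binding of the Sf9 membrane reagent. Each polyreactivity label is drawn from the gate of origin.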

Row | Sequence | polyreactivity (PSR sort gate)
1 | QVQLVDSGGGLVQAGGSLRLSCAASGRIFQQNAMGWYRQAPGKERELVAAISWRGTSTYYADSVKGRFTISRDNAKNTVYLQMNSLKPEDTAVYYCAAQGYAYTLVAKVYRWYEYAYWGQGTQVTVSS | high polyreactivity
2 | QVQLVDSGGGLVQAGGSLRLSCAASGRIFRRYTMGWYRQAPGKERELVAAISSGGGTNYADSVKGRFSISRDNAKNTVYLQMNSLKPEDTAVYYCNARSWLSRGYGYWGQGTQVTVSS | high polyreactivity
3 | QVQLVDSGGGLVQAGGSLRLSCAASGRIFRSYAMGWYRQAPGKERELVAGISSTGGNTYYADSVKGRFTISRDNAKNTVYLQMNSLKPEDTAVYYCAAYWFRGYKYWGQGTQVTVSS | high polyreactivity
4 | QVQLVDSGGGLVQAGGSLRLSCAASGRIIWYKGMGWYTQATGKERELVAAINRGTSTYYADSVKGRFTISRDNAKNSVYLQMNSLKPEDTAVYYCAAGVSRWYYYWGQGTQVTVSS | high polyreactivity
5 | QVQLVDSGGGLVQAGGSLRLSCAASGRTFAYNVMGWYRQAPGKERELVAAISRGGGRTYYADSVKGRFTIARDNAKNTVYLQMNSLKPEDTAVYYCNAYLFFLNRVWSFDYWGQGTQVTVSS | high polyreactivity
6 | QVQLVDSGGGLVQAGGSLRLSCAASGRTFGGNAIGRYIQAPGKETELVAGINISGGSTNYADSVKGRFTISRDNAMNTVYLQMNSLKPEDTPVYYCNADTAVYAWDDDYWGQGTQVTVSS | low polyreactivity
7 | QVQLVDSGGGLVQAGGSLRLSCAASGRTFQRNAMGWYRQAPGTERELVATITTNGGSTYYADSVKGRFTISRDNAKNTVYLQMNSLKPEDTAVYYCAAPFNPRVRTLRSVRMDYWGQGTQVTVSS | low polyreactivity
8 | QVQLVDSGGGLVQAGGSLRLSCAASGRTFRYYDMGWYRPAPGEVREFVAAITWRGGSTYYADSVKGRFTISRDNAKNTVYSQMNSLKPEDTAVYYCATDSLRLYGGKRDLYYWGQGTQVTVSS | low polyreactivity
9 | QVQLVDSGGGLVQAGGSLRLSCAASGRTFSLYAMGWYRQAPGKERELVATISQSGGSTYYADSVKGRFTISRDNAKNTVYLQMNSQKPEDTAVYNCAAGGIYLDYFGQGTQVTVSS | low polyreactivity
10 | QVQLVDSGGGLVQAGGSLRLSCAASGRTFSVNAMGWYRQAPGKERELVAAISSAGSTNYADSVKGRFTISRDNAKNTVYLQMNSLKPEDTAVYYCAAGFSPGNYDAPTLAFDYWGQGTQVTLSS | low polyreactivity
11 | QVQLVDSGGGLVQAGGSLRLSCAASGRTFTVYAMGWYRQAPGKERELVASISGSSGSTDYADSVKGRFTISRDNAKNTVYLQMNSLKPEDTAVYFCAKASSATRYVQLRQDYDYWGQGTQVTVSS | low polyreactivity
12 | QVQLVDSGGGLVQAGGSLRLSCAASGRTFWIYAMGWYRPAPGKERELVAAISRGGSTYADSVKGRFTISRDNAKNTVYLQMNSLKPEDTAVYYCAASTPQYQYYYWGQGTQVTVSS | high polyreactivity
13 | QVQLVDSGGGLVQAGGSLRLSCAASGSIFAGYTMGGYRQAPGKEREFVAAISSSGGSTYYADSVKGRFTISRDNAKNTVYLQMNSLKPEDTAVSYCAVRGRISSVSRYGYWGQGTQVTVSS | high polyreactivity
14 | QVQLVDSGGGLVQAGGSLRLSCAASGSIFGLYAMGWYRQAPGKERELVAAISASGGSTYYADSVKGRFTISRDNAKNTVYLQMNSLKPEDTAVYYCAADLGYPTYDYWGQDTQVTVSS | low polyreactivity
15 | QVQLVDSGGGLVQAGGSLRLSCAASGSIFGSYVMGWYRQAPGKERELVAAISSSGASTYYADSVKGRFTISRDNAKNTVYLQMNSLKPEDTAVYYCAAGYVHLYYFHEYYWGQGTQVTVSS | high polyreactivity
16 | QVQLVDSGGGLVQAGGSLRLSCAASGSIFHVNAMGWYRQAPGKERELVAAIRSDASTNYADSVKGRFTISRDNAKNTVYLQMNILKPEDTAVYYCNTAQLVSDEFDYSGQGTQVTVSS | low polyreactivity
17 | QVQLVDSGGGLVQAGGSLRLSCAASGSIFPDNAMGWYRQAPGKEWEFVAAINWSTGTTYYADSVKGRFTISRDNAKNTVYLQMNSLKPEDTAVYYFNASDQAKYDYWGQGTQVTVSS | low polyreactivity
18 | QVQLVDSGGGLVQAGGSLRLSCAASGSIFSVYAMGWYRQAPGKERELVAAISSRGGSTYYADSVKGRFTISRDNAKNTVYLQMNSLKPEDTAVYYCAASRQSQRGYWGQGTQVTVSS | high polyreactivity
19 | QVQLVDSGGGLVQAGGSLRLSCAASGSIFWDYAMGWYRQAPGIERELVASIPSGGSTYYADSVKGRFTISRDNAKKTVYLQMNRLKPEDTAVYYCAADGHTRHWGQTGRGAMYYWGQGTQVTVSS | low polyreactivity
20 | QVQLVDSGGGLVQAGGSLRLSCAASGSIFYRNAMGWSRQAPGKERELVAAITRGGSTYYADSVKGRFTISRDNAKNTVYLQMNSLKPEDTAVYYCNAYGGFAYSYDYWGQGTQVTVSS | high polyreactivity
21 | QVQLVDSGGGLVQAGGSLRLSCAASGSILESNVMGWYRQAPGKERELVASISSSGDSTYADSVKGRFTISRDNAKNTVYLQMNILKPEYTAVYYCAADRWYWTYALYYWGQGTQVTVSS | low polyreactivity
22 | QVQLVDSGGGLVQAGGSLRLSCAASGSILFEYMGWYRQAPGKERELVAAITIRDGGTYYADSVKGRFTISRDNAKNTVYLQMNSLKPEDTAVYYCNADFSGGWRYDYWGQGTQVTVSS | low polyreactivity

Row | Sequence | polyreactivity (PSR sort gate)
23 | QVQLVDSGGGLVQAGGSLRLSCAASGSTFDPYTMGWYRQAPGTERELVAGMTGGGSTYYADCVKGRFTISRDNAKNTVYLQMNSLKPEDTAVYYCARDYSYYKGPDGHYWGQGTQVTVSS | low polyreactivity
24 | QVQLVDSGGGLVQAGGSLRLSCAASGSTFDVYAMGWYRQAPGKERELVAVINTSGTRTYYADSVKGRFTISRDNAKNTVYLQMNSLKPEDTEVYYCNAGGHLEMNYWGQGTQVTVSS | low polyreactivity
25 | QVQLVDSGGGLVQAGGSLRLSCAASGSTFISYAMRWYRPAPGKERELVAAISSSTGRTYYADSVKGRFTISRDNAKNTVYLQMNSLKPEDTAVYYCNAVHRYERVYWGQGTQVTVSS | high polyreactivity
26 | QVQLVDSGGGLVQAGGSLRLSCAASGSTFQGNTMGWYRQAPGKERELVAAISRSGGITYYADSVKGRFTISRVNAKNTVYLQMNSLKPEDTAVYYCAAKQVFTAGRSVDYWGQGTQVTVSS | high polyreactivity
27 | QVQLVDSGGGLVQAGGSLRLSCAASGSTFVYNTMGWYSHAPGKERELVAAISYRGSTYYADSVKGRFTISRENAKNTVYLQMNSLKPEDTAVYYCNGPRRQYEYDFWGLGTQVTVSS | high polyreactivity
28 | QVQLVDSGGGLVQAGGSLRLSCAASGSTLRRYAMGWYRQAPGKERELVAAISGSGDSTYYADSVKGRFTISRDNAKNTVYLQMNSLKPEDTAVYYCNAVYAFNGYDYWGQGTQVTVSS | low polyreactivity
29 | QVQLVDSGGGLVQAGGSLRLSCAASGYSFYFYAMGWYRQAPGKERELVAAITGGGTTSYADSVKGRFTISRDNAKNTVYLQMNSLKPEDTAVYYCNVLFADKSDYWGQGTLVTVSS | low polyreactivity
30 | QVQLVDSGGGLVQAGGSLRLSCAASGYTFDRYAMGWYRQAPGKERELVAAISVRGGRTHYADSVKGRFTISRDNAKNTVYLQMNSLKPEDTAVYYCNKDSKGGYSVPHDYWGQGTQVTVSS | low polyreactivity
31 | QVQLVDSGGGLVQAGGSLRLSCAASGYTLSVNAMGWYRQAPGKERELVATIDFGGGSTYYADSVKGRFTISRDNAKNTVYLQMNSLKPEDTAVYYCNAHDFGFYRFSLPGYDYWGQGTQVTVSS | low polyreactivity
32 | QVQLVDSGGGLVQAGGSLRLSCAASVFTFYCNAMGWYRQAPGKERELVAAITSTGNTYYADSVKGRFTISRDNAKNTVYLQMNSLKPEDTAVYYCARRGDILYDYWGQGTQVTVSS | low polyreactivity
33 | QVQLVDSGGGLVQAGGSLRLSCAPYVLIFWAYAMGWYRQAPGKERELVAAISWSGARTYYADSVMGRFTISRDHAKHTVYLQMNSLKPEDTAVYYCAVGVQSSKRHDYWGQGTQVTVSS | high polyreactivity
34 | QVQLVDSGGGLVQAGGSLRLSCPASGRTFFNNVMGWSRQAPGKEREWVAAISKSGTRTYYADSVKGRFTISRDNAKNTVYLQMNSLKPEDTAVYYCATGPYLRTSRYYYWGQGTQVTVSS | high polyreactivity
35 | QVQLVDSGGGLVQAGGSLRLSCSASGSILGAYAMGWYRQSPGKERELVASISWSGGSTYYADSVKGRFTISRDNAKNTVYLQMNSLKPEDTAGYYCAASGIRYWLPYDYWGQGTQVTVSS | high polyreactivity
36 | QVQLVDSGGGLVQAGGSLRLSSAASGRTFRYYTMGWYRQAPGKERELVAGISRSGANTYYADSVKGRFTISRDNAKNSVYLQMNSLKPEDTAVYYCNAVYGTYDWGQGTQVTVSS | high polyreactivity
37 | QVQLVDSGGGLVQAGGSLRLSWAASGSTLYVNAIGFYRQAPGKERELVSAISWSGGSTNYADSVKGRFTISRDNAKNTVYLQMNSQKPEDTSVYYCAVYYRRWFSRYDYWGQGTQVTVSS | low polyreactivity
38 | QVQLVDSGGGLVQAGGSLRLTCAASGRTFRYNAMGWYRQAPGKERDLVARISRGGSPYADSVKGRFTISRDNAKNTVYLQMNSLKPEDSAVYYCAADPTKHNQSEYYYWGQGTQVNVSS | low polyreactivity
39 | QVQLVDSGGGLVQAGGSLRLTCAASGSTFDTNSVGWYRQAPGKERELVAAITSGGNTYADSVKGRFTISRDNAKNTVYFQMNSLKAEDTAVYYCAAEDVFTCWYDYWGQGTQVNVSS | low polyreactivity
40 | QVQLVDSGGGLVQAGGSLRLTCDASGFIILYYAMRWYRQEPGKERELVADISRGADTKYADSVKGRFTISRDNAKNTVYLQMNSLKPEDTAVYYCATDITTFCFPYPGVELGYWGQGTQVTVSS | low polyreactivity
41 | QVQLVDSGGGLVQAGGSLRLTSAASGRIFVRNAMGWYRPAPGKERELVAASSWSSGGTYYADSVKGRFTISRDNAKNRVYLQMNSLKPEETAVYSCIADTSRAGVYWGQGTQVTVSS | low polyreactivity
42 | QVQLVDSGGGLVQAGGSLSLSCAASGNIFDYNVMGWYRQAPGKERELVAAITASAVRTYYADSVKGRFTISRDNAKNTVYLQMNSLKPEDIAVYYCGKRRIVRQRSYYYWGQGTQVTVSS | low polyreactivity
43 | QVQLVDSGGGLVQAGGSLSLSCAASGRIFPYNAMGWYRQAPGKERELVAGISRTGGSTYYADSVKGRFTISRDNAKNTVYLQKNCLKTEDTAAYYCGARPGAHPDRLDYWGQGTQVTVSS | low polyreactivity
